Source: patent US20260209306A1 (ALIVEGEN, published 2026)

T1: myostatin (UniProt O14793 267-375)
T1 sequence (looked up): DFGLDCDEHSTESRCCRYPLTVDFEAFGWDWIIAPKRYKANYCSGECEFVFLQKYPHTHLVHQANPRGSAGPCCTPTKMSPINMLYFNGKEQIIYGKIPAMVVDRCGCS

T2: activin A (UniProt P08476 311-426)
T2 sequence (looked up): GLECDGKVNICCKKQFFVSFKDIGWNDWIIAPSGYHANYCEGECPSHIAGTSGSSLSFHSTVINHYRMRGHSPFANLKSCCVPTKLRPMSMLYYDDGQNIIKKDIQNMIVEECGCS

T3: activin B (UniProt P09529 293-407)
T3 sequence (looked up): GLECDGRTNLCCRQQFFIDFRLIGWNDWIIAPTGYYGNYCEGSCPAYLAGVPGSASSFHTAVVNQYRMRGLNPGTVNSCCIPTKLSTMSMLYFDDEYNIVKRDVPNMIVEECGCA

T4: BMP9 (UniProt Q9UK05 320-429)
T4 sequence (looked up): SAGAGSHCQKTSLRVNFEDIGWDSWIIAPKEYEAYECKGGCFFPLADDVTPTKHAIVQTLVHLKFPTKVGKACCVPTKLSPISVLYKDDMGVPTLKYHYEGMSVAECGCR


Legend:
[1] = molecular target: T1, myostatin; experiment: cell-based or functional assay
[2] = molecular target: T2, activin A; experiment: cell-based or functional assay
[3] = molecular target: T3, activin B; experiment: cell-based or functional assay
[4] = molecular target: T4, BMP9; experiment: cell-based or functional assay
[5] = molecular target: T4, BMP9; experiment: Octet Red BLI; trap loaded on AHC biosensor
Procedure: (§1) Myostatin and BMP9 binding activities of various hybrid ActRIIB ligand trap proteins were initially analyzed using Octect Red (ForteBio). Purified proteins or conditioned media were individually loaded to AHC biosensors with maximum loading. Following a baseline washing phase, the sensors were exposed to 10 nM myostatin or BMP9, respectively, for an association step followed by a dissociation step. All experiments were performed with shaking at 1,000 rpm. Binding activity was analyzed using ForteBio's software with KD being calculated using the ratio Kd/Ka.

[6] = molecular target: T1, myostatin; experiment: Octet Red BLI; protein on AHC biosensor, 10 nM ligand; legend +++ KD <10^-8M
Procedure: as §1

Cell-Based IC50 (nM) Against Myostatin; C2C12-CAGA-luc reporter [1] | Cell-Based IC50 (nM) Against Activin A; C2C12-CAGA-luc reporter [2] | Cell-Based IC50 (nM) Against Activin B; C2C12-CAGA-luc reporter [3] | Cell-Based IC50 (nM) Against BMP9; C2C12-BRE-luc reporter [4] | binding result [5] | KD [6] | Binder
1.24 nM | 1.27 nM | 1.04 nM | 3.4 nM |  |  | wild-type ActRIIB-ECD-Fc fusion protein (Fc fusion, not shown: a dimerising Fc or GST) ETRECIYYNANWELERTNQSGLERCEGEQDKRLHCYASWRNSSGTIELVKKGCWLDDFNCYDRQECVATEENPQVYFCCCEGNFCNERFTHLPEAGGPEVTYEPPPTAPTGGGGSESKYGPPCPPCP
 |  |  |  | no binding (tested: 10 nM BMP9) | < 10 nM | AG-0011 hybrid ActRIIB ligand trap protein (Fc fusion, ECD - linker - hinge linker - Fc; signal peptide left out; not shown: human Fc domain) ETRECIYYNANWELERTNQSGLERCEGDQDKRLHCYASWRNSSGTIELVKKGCWLDDFNCYDRQECVEKKDSPEVYFCCCEGNMCNERFTHLPEAGGPEVTYEPPPTAPTGGGGSESKYGPPCPPCP
1.14 nM | 1.62 nM | 1.3 nM |  |  |  | AG-0027 hybrid ActRIIB ligand trap protein (Fc fusion, not shown: a dimerising Fc or GST) ETRECIYYNANWELERTNQSGLERCEGDQDKRLHCYASWRNSSGTIELVKKGCWLDDINCYDRQECVATKENPQVYFCCCEGNFCNERFTHLPEAGGPEVTYEPPPTAPTGGGGSESKYGPPCPPCP
0.95 nM | 1.15 nM | 2.1 nM |  |  |  | AG-0014 hybrid ActRIIB ligand trap protein (Fc fusion, not shown: a dimerising Fc or GST) ETRECIYYNANWELERTNQSGLERCYGDKDKRRHCYASWRNSSGTIELVKKGCWLDDFNCYDRQECVATEENPQVYFCCCEGNFCNERFTHLPEAGGPEVTYEPPPTAPTGGGGSESKYGPPCPPCP
